Experimental findings from publication PMC8358021 are described below.

Assay [1] concerns the target AbApeO-AbApeC heterodimer (ketosynthase-chain length factor complex of the aryl polyene biosynthesis gene cluster of Acinetobacter baumannii) (Acinetobacter baumannii). The experiment in a line: ITC; 2.0 mM holo ACP1 or holo ACP2 injected (19 injections of 3 µl) into 0.1 mM AbApeO-AbApeC or AbApeR; 25 °C; 40 mM potassium phosphate pH 7.0; 2 mM 2-mercaptoethanol.
The target in assay [2] is AbApeR (FabB-like homodimeric ketosynthase of the A. baumannii APE gene cluster) (Acinetobacter baumannii). The assay is described as above.

“holo ACP1 (ApeE), acyl carrier protein 1 of the A. baumannii APE gene cluster (natural protein)”: in assay [1], the Kd is 0.074 µM and the stoichiometry N came to 1.63. In assay [2], this substance showed an equilibrium dissociation constant (Kd) of 18 µM and a stoichiometry N of 1.55.
